Data published in patent US20020058024A1 (YEDA RESEARCH AND DEVELOPMENT, published 2002).

B1: p55-R (receptor, UniProt P19438 235-455, looked up)
chain: RYQRWKSKLYSIVCGKSTPEKEGELEGTTTKPLAPNPSFSPTPGFTPTLGFSPVPSSTFTSSSTYTPGDCPNFAAPRREVAPPYQGADPILATALASDPIPNPLQKWEDSAHKPQSLDTDDPATLYAVVENVPPLRWKEFVRRLGLSDHEIDRLELQNGRCLREAQYSMLATWRRRTPRREATLELLGRVLRDMDLLGCLEDIEEALCGPAALPPAPSLLR
notes: also called p55 TNF-R; p55 tumor necrosis factor receptor
B2: MORT-1 (other, UniProt Q13158 1-208, looked up)
chain: MDPFLVLLHSVSSSLSSSELTELKFLCLGRVGKRKLERVQSGLDLFSMLLEQNDLEPGHTELLRELLASLRRHDLLRRVDDFEAGAAAGAAPGEEDLCAAFNVICDNVGKDWRRLARQLKVSDTKIDSIEDRYPRNLTERVRESLRIWKNTEKENATVAHLVGALRSCQMNLVADLVQEVQQARDLQNRSGAMSPMSWNSDASTSEAS
notes: also called FADD
B3: TRADD (other, UniProt Q15628 1-312, looked up)
chain: MAAGQNGHEEWVGSAYLFVESSLDKVVLSDAYAHPQQKVAVYRALQAALAESGGSPDVLQMLKIHRSDPQLIVQLRFCGRQPCGRFLRAYREGALRAALQRSLAAALAQHSVPLQLELRAGAERLDALLADEERCLSCILAQQPDRLRDEELAELEDALRNLKCGSGARGGDGEVASAPLQPPVPSLSEVKPPPPPPPAQTFLFQGQPVVNRPLSLKDQQTFARSVGLKWRKVGRSLQRGCRALRDPALDSLAYEYEREGLYEQAFQLLRRFVQAEGRRATLQRLVEALEENELTSLAEDLLGLTDPNGGLA
B4: p75-R (receptor, UniProt P20333 287-461, looked up)
chain: VKKKPLCLQREAKVPHLPADKARGTQGPEQQHLLITAPSSSSSSLESSASALDRRAPTRNQPQAPGVEASGAGEARASTGSSDSSPGGHGTQVNVTCIVNVCSSSDHSSQCSSQASSTMGDTDSSPSESPKDEQVPFSKEECAFRSQLETPETLLGSTEEKPLPLGVPDAGMKPS
notes: also called p75 TNF-R; p75 tumor necrosis factor receptor

biological target: T1, RAP (RIP-associated protein) (human, UniProt Q9Y3I1 1-522, limits assumed); assay: binding assay tests (method not named)
T1 construct: The clone first isolated in the two-hybrid screen was a partial clone of about 1.9 Kb; also called RAP protein; RAP-1 (clone of about 2.2 kB, CNCM I-2706)
T1 sequence: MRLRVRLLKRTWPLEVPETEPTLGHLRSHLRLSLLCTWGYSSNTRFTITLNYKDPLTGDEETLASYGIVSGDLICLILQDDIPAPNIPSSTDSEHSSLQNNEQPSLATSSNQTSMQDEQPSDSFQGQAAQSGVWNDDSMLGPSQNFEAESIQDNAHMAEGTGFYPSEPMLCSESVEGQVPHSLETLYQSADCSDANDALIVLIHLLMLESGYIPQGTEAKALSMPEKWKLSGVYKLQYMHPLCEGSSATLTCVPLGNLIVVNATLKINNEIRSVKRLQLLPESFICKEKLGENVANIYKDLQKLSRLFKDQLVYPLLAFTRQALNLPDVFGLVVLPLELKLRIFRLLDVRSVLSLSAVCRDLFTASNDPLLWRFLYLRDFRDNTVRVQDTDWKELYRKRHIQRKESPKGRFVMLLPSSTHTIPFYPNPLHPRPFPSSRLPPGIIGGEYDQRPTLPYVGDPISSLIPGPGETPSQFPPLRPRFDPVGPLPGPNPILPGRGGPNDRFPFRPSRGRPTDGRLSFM

Binding result, no binding:
B1, B2, B3, B4
